Source: doi:10.1101/2021.08.20.457084
“And” between values parts separate entries of the source, which are not always exact repeats. Equal entries are not always repeated. Blank lines part the entries; values can stand above or below the substance they belong to.

Tests used:
[1] = target: CsGSIb EVK138DIQ mutant (Camellia sinensis); experiment: AUC
[2] = target: CsGSIb EVK138DIQ mutant (Camellia sinensis); experiment: SEC-MALS
[3] = target: CsGSIb I143L mutant (Camellia sinensis); experiment: AUC
[4] = target: CsGSIb I143L mutant (Camellia sinensis); experiment: SEC-MALS
[5] = target: glutamine synthetase CsGSIb from Camellia sinensis, wild type (Camellia sinensis); experiment: cryo-EM structure
[6] = target: glutamine synthetase CsGSIb from Camellia sinensis, wild type (Camellia sinensis); experiment: cryo-EM structure; remark: listed apart in the source
[7] = target: glutamine synthetase CsGSIb from Camellia sinensis, wild type (Camellia sinensis); experiment: negative-stain electron microscopy
[8] = target: glutamine synthetase CsGSIb from Camellia sinensis, wild type (Camellia sinensis); experiment: AUC
[9] = target: glutamine synthetase CsGSIb from Camellia sinensis, wild type (Camellia sinensis); experiment: SEC-MALS
[10] = target: glutamine synthetase GmGSβ2 from Glycine max (Glycine max); experiment: cryo-EM structure
[11] = target: glutamine synthetase GmGSβ2 from Glycine max (Glycine max); experiment: negative-stain electron microscopy
[12] = target: glutamine synthetase GmGSβ2 from Glycine max (Glycine max); experiment: SEC-MALS

Kd [1]: 40 nM
percent of the protein in the decameric state [2]: 72%
stoichiometry N [2]: 10
Substance: CsGSIb EVK138DIQ mutant (enzyme)

Kd [3]: 10 nM
percent of the protein in the decameric state [4]: > 95%
stoichiometry N [4]: 10
Substance: CsGSIb I143L mutant (enzyme)

stoichiometry N [5]: 10
stoichiometry N [6]: 5
stoichiometry N [7]: 5 and 10
Kd [8]: 270 nM
stoichiometry N [8]: 10 and 5
percent of the protein in the decameric state [9]: 18%
percent of the protein in the pentameric state [9]: 82%
stoichiometry N [9]: 5 and 10
Substance: glutamine synthetase CsGSIb from Camellia sinensis, wild type (enzyme)

stoichiometry N [10]: 10
stoichiometry N [11]: 10
stoichiometry N [12]: 10
Substance: glutamine synthetase GmGSβ2 from Glycine max (enzyme)
